# Laboratory results as given in patent US11254722B2, “Recombinant proteins and uses thereof” (ACADEMIA SINICA, priority 2017, dated 2022).
# Where two headings read alike, the source gives them in different places.
# B1: 4382: SEQ ID NO: 25; the complete link region (protein)
# chain: MSEVPVARVWLVLLLLTVQVGVTAGGASSAVNASAVSRLRAYLLPAPPAPGNASESEEDRSAGSVESPSVSSTHRVSDPKFHPLHSKIIIIKKGHAKDSQRYKVDYESQSTDTQNFSSESKREVECPPCPAPPVAGPSVFLFPPKPKDQLMISRTPEVTCVVVDVSHEDPEVKFNWYVDGVEVHNAKTKPREEQYNSTYRVVSVLTVLHQDWLNGKEYKCKVSNKGLPSSIEKTISKAKGQPREPQVYTLPPSREEMTKNQVSLTCLVKGFYPSDIAVEWESNGQPENNYKTTPPVLDSDGSFFLYSKLTVDKSRWQQGNVFSCSVMHEGLHNHYTQKSLSLSPGK
# B2: 4141: SEQ ID NO: 23; a fragment comprising the N-terminus and the linker region from h3t33 (protein)
# chain: MSEVPVARVWLVLLLLTVQVGVTAGGASSAGLGPVVRCEPCDARALAQCAPPPAVCAELVREPGCGCCLTCALSEGQPCGIYTERCGSGLRCQPSPDEARPLQALLDGRGLCVNASAVSKGHAKDSQRYKVDYESQSTDTQNFSSESKRETEYVECPPCPAPPVAGPSVFLFPPKPKDQLMISRTPEVTCVVVDVSHEDPEVKFNWYVDGVEVHNAKTKPREEQYNSTYRVVSVLTVLHQDWLNGKEYKCKVSNKGLPSSIEKTISKAKGQPREPQVYTLPPSREEMTKNQVSLTCLVKGFYPSDIAVEWESNGQPENNYKTTPPVLDSDGSFFLYSKLTVDKSRWQQGNVFSCSVMHEGLHNHYTQKSLSLSPGK
# B3: 4142: SEQ ID NO: 24; the N-terminus only (protein)
# chain: MSEVPVARVWLVLLLLTVQVGVTAGGASSAGLGPVVRCEPCDARALAQCAPPPAVCAELVREPGCGCCLTCALSEGQPCGIYTERCGSGLRCQPSPDEARPLQALLDGRGLCVNASAVSVECPPCPAPPVAGPSVFLFPPKPKDQLMISRTPEVTCVVVDVSHEDPEVKFNWYVDGVEVHNAKTKPREEQYNSTYRVVSVLTVLHQDWLNGKEYKCKVSNKGLPSSIEKTISKAKGQPREPQVYTLPPSREEMTKNQVSLTCLVKGFYPSDIAVEWESNGQPENNYKTTPPVLDSDGSFFLYSKLTVDKSRWQQGNVFSCSVMHEGLHNHYTQKSLSLSPGK
# B4: IGFBP3-v1v2-erbB4-Fc: ErbB4-GS-IGFBP3-gly 3 linker-v1v2-Fc, SEQ ID NO: 20 (protein)
# chain: MSEVPVARVWLVLLLLTVQVGVTAGVQPSDSQSVCAGTENKLSSLSDLEQQYRALRKYYENCEVVMGNLEITSIEHNRDLSFLRSVREVTGYVLVALNQFRYLPLENLRIIRGTKLYEDRYALAIFLNYRKDGNFGLQELGLKNLTEILNGGVYVDQNKFLCYADTIHWQDIVRNPWPSNLTLVSTNGSSGCGRCHKSCTGRCWGPTENHCQTLTRTVGGGGSGGGGSGGGGSGGGGSGGGGGASSAGLGPVVRCEPCDARALAQCAPPPAVCAELVREPGCGCCLTCALSEGQPCGIYTERCGSGLRCQPSPDEARPLQALLDGRGLCVNASAVSKGHAKDSQRYKVDYESQSTDTQNFSSESKRETEYGPCRREMEDTLNHLKFLNVLSPRGVHIPNCDKKGFYKKKQCRPSKGRKRGFCWCVDKYGQPLPGYTTKGKEDVHCYSMQSKAPPAPGNASESEEDRSAGIYIFISDTGRPFVEMYSEIPEIIHMTEGRELVIPCRVTSPNITVTLKKFPLDTLIPDGKRIIWDSRKGFIISNATYKEIGLLTCEATVNGHLYKTNYLTHRQGYRIYDVVLSPSHGIELSVGEKLVLNCTARTELNVGIDFNWEYPSSKHQHKKLVNRDLKTQSGSEMKKFLSTLTIDGVTRSDQGLYTCAASSGLMTKKNSTFVRVHEKVECPPCPAPPVAGPSVFLFPPKPKDQLMISRTPEVTCVVVDVSHEDPEVKFNWYVDGVEVHNAKTKPREEQYNSTYRVVSVLTVLHQDWLNGKEYKCKVSNKGLPSSIEKTISKAKGQPREPQVYTLPPSREEMTKNQVSLTCLVKGFYPSDIAVEWESNGQPENNYKTTPPVLDSDGSFFLYSKLTVDKSRWQQGNVFSCSVMHEGLHNHYTQKSLSLSPGK
# Experiments:
# hep3B cells = test: hep3B proliferation assay; type: cell-based, human; settings: Homo sapiens, Hep3B, FIG. 15, read-out: IC50 of erlotinib to EGFR-wildtype hep3B cells
# Experimental: For the proliferation assay, cells except for HUVEC were seeded at a density of 1,000 to 6,000 in 96 wells in an assay buffer of DMEM/F12 plus 0.2% BSA and 10 ug/ml transferrin. Chemical inhibitors were added after 16-20 hours after plating; IGF-1 or other growth factors or test chimeras in assay buffer were added at the time of plating or 16-20 hours after plating. 5,000 HUVEC ells were plated in poly-L-lysine coated 96 wells in M199 with 1%/FBS and HEPES. After 3 to 4 days of culture, growth was determined by incubating cells with Alamar blue for 4 to 6 hours and then the fluorescence (RFU) at 544/590 nm was read. For long term proliferation assays, cells were plated in the growth media with 5% or 10% FBS at densities of 500 to 10,000 cells per cm^2 growth area and grown for 7 to 21 days. Inhibitors and effectors were added 1-4 days after plating. Cells were exposed to cisplatin or gemcitabine for two days. Medium was renewed twice weekly. At completion, cells were fixed and then stained with Giemsa.
# The human hepatoma cell line hep3B could be stimulated by many growth factors including IGF-1, IGF-2, HGF, bFGF, VEGF, and neuregulin.
# [1] = tested on: PC-9 non-small cell lung cancer cells; test: PC-9 subcutaneous tumors in NSG mice, daily erlotinib; type: in vivo; settings: erlotinib alone, 25 mg/kg orally daily; day 20
# Experimental: (§1) 5×10exp6 PC-9 non-small cell lung cancer cells were injected subcutaneously in Nod scid gamma (NSG) mice. […] Erlotinib in 6% captisol was dosed orally daily at 25 mg/kg; IGFBP3Fc (3(del3)3) was dosed intraperitoneally at 25 mg/kg three times per week; control animals were administered vehicle. Dosing was started on day 11; erlotinib and erlotinib plus D3 was discontinued on day 19; D3 injections were discontinued on day 22.
# PC-9 tumors = test: PC-9 subcutaneous tumors in mice, low dose erlotinib; type: in vivo; settings: erlotinib 25 mg/kg 3 times per week; FIG. 27
# Experimental: as §1
# Subcutaneous PC-9 tumors were generated and measured as above. Chimera D3 was dosed as above; erlotinib was dosed at 25 mg/kg 3 times per week in order to examine the effect of the chimera D3 on the tumor growth with suboptimal erlotinib dosing. The treatment started on day 8 and ended on day 22.
# IGF-1 = molecular target: T1, IGF-1 (Homo sapiens, UniProt P05019); test: Biacore binding to IGF-1; parameters: key to growth factor binding, igf1: +: sufficient to bind; −: unable to bind; settings: tested in .65M NaCL
# T1 construct: purchased R&D Sciences or SinoBiologicals
# Experimental: (§2) Biacore binding was performed at David Myszka's laboratory at the University of Utah or at the Genomic Research Center at Academia Sinica. Surfaces of binding protein chimera were made via chemical immobilization on a CM4 chip using standard amine coupling chemistry. […] Excess surface carboxyl activated sites on all four flow cells was blocked using the doubly positively charged species ethylenediamine. Binding experiments (but not immobilizations) in HBS-P (10 mM HEPES pH 7.4, 150 mM NaCl, 0.05% P20), The HBS-P was supplemented with BSA at 0.2 mg/mL, or HBS-P was supplemented with 500 mM NaCl (650 mM NaCl, final concentration). Analytes were also reconstituted in the corresponding buffer. All experiments were performed at 25° C. 1/150 dilutions of phosphoric acid were used to regenerate IGFBP3-Fc surfaces and a sequence of 3 M MgCl2 followed by 5 M GuCl was used to regenerate surfaces immobilized with growth factor. Dissociation constants reported below used immobilized binding protein unless noted. Differences between binding constants may be expected between growth factor immobilization and chimera immobilization.
# IGF-2 = molecular target: T2, IGF-2 (Homo sapiens, UniProt P01344); test: Biacore binding to IGF-2; parameters: key: +: sufficient to bind; −: unable to bind; settings: tested in .65M NaCL
# T2 construct: purchased R&D Sciences or SinoBiologicals
# Experimental: as §2
# nrgbx = test: Biacore binding to nrgbx; parameters: key: +: sufficient to bind; −: unable to bind; settings: tested in .65M NaCL
# Experimental: as §2
# bFGF = molecular target: T3, bFGF (Homo sapiens, UniProt P09038); test: Biacore binding to bFGF; parameters: key: +: sufficient to bind; −: unable to bind; settings: tested in .65M NaCL
# T3 construct: purchased R&D Sciences or SinoBiologicals
# Experimental: as §2
# VEGF B = molecular target: T4, VEGF B (Homo sapiens, UniProt P49765); test: Biacore binding to VEGF B; parameters: key: +: sufficient to bind; −: unable to bind; settings: tested in .65M NaCL
# T4 construct: purchased R&D Sciences or SinoBiologicals
# T4 sequence (P49765 22-207): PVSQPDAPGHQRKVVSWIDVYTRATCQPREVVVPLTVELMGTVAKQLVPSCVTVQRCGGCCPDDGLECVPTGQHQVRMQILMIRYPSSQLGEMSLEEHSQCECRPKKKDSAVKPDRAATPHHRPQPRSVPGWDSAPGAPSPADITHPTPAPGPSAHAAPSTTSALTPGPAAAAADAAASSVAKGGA
# Experimental: as §2
# PDGF AB = molecular target: T5, PDGF AB (Homo sapiens, UniProt P01127+P04085); test: Biacore binding to PDGF AB; parameters: key: +: sufficient to bind; −: unable to bind; settings: tested in .65M NaCL
# T5 construct: purchased R&D Sciences or SinoBiologicals
# Experimental: as §2
# [2] = molecular target: T6, nrgEGF (amino acids Thr176-Lys246 of neuregulin-beta 1) (Homo sapiens, UniProt Q02297); test: Biacore binding to nrgEGF
# T6 construct: Thr176-Lys246 of neuregulin-beta 1; purchased R&D Sciences or SinoBiologicals
# T6 sequence (Q02297 176-246 isoform Q02297-6): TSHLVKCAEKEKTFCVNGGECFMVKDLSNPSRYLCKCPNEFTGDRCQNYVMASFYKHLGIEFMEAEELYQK
# Experimental: as §2
# In this example, erbB4 domain 1 was attached to the N-terminus of the recombinant IGFBP3-Fc or the recombinant IGFBP3-v1v2-Fc.
# T2 sequence (P01344 25-91): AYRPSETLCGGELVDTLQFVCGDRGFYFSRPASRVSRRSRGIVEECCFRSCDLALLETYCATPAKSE
# T1 sequence (P05019 49-118 limits assumed): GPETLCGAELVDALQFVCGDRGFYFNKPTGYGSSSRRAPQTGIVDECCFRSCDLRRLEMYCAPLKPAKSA
# T3 sequence (P09038 143-288): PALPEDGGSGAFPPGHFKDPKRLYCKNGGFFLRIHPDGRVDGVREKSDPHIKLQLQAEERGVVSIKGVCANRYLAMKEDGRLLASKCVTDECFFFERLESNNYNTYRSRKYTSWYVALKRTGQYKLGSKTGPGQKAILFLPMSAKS
# T5 sequence (P01127 82-190 limits assumed, other chains not shown): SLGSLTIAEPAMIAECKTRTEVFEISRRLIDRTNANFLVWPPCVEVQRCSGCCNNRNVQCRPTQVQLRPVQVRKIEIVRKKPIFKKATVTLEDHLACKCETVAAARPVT
Molecule,IC50 (hep3B cells; cells not treated with chimera h3t33Fc) [nM],IC50 (hep3B cells; with the addition of 100 nM chimera h3t33Fc) [nM],tumor volume of treated to control (T/C) [1] [%],tumor regression with intermittent dosing (PC-9 tumors),"growth factor binding, igf1 (IGF-1)","growth factor binding, igf2 (IGF-2)","growth factor binding, nrgbx (nrgbx)","growth factor binding, bFGF (bFGF)","growth factor binding, VEGF B (VEGF B)","growth factor binding, PDGF AB (PDGF AB)",Kd [2] [nM]
"C#Cc1cccc(Nc2ncnc3cc(OCCOC)c(OCCOC)cc23)c1 [erlotinib, reference compound]",~10000,~100,38,did not cause the tumor regression,,,,,,,
B1,,,,,−,−,−,−,−,−,
B2,,,,,+,+,+,+,+,+,
B3,,,,,+,+,−,−,−,−,
B4,,,,,,,,,,,11
